According to patent US20120003670A1 (BLOOD CENTER RESEARCH FOUNDATION, published 2012):
Numbering of substitutions follows the chain as printed. In names and notes the source's numbering stands.

B1: wild-type GPIbα (SEQ ID NO:11), full-length, on transfected HEK-293T cells (receptor)
chain: HPICEVSKVASHLEVNCDKRNLTALPPDLPKDTTILHLSENLLYTFSLATLMPYTRLTQLNLDRCELTKLQVDGTLPVLGTLDLSHNQLQSLPLLGQTLPALTVLDVSFNRLTSLPLGALRGLGELQELYLKGNELKTLPPGLLTPTPKLEKLSLANNNLTELPAGLLNGLENLDTLLLQENSLYTIPKGFFGSHLLPFAFLHGNPWLCNCEILYFRRWLQDNAENVYVWKQGVDVKAMTSNVASVQCDNSDKFPVYKYPGKGCPTLGDEGDTDLYDYYPEEDTEGDKVRATRTVVKFPTKAHTTPWGLFYSWSTASLDSQMPSSLHPTQESTKEQTTFPPRWTPNFTLHMESITFSKTPKSTTEPTPSPTTSEPVPEPAPNMTTLEPTPSPTTPEPTSEPAPSPTTPEPTSEPAPSPTTPEPTPIPTIATSPTILVSATSLITPKSTFLTTTKPVSLLESTKKTIPELDQPPKLRGVLQGHLESSRNDPFLHPDFCCLLPLGFYVLGLFWLLFASVVLILLLSWVGHVKPQALDSGQGAALTTATQTTHLELQRGRQVTVPRAWLLFLRGSLPTFRSSLFLWVRPNGRVGPLVAGRRPSALSQGRGQDLLSTVSIRYSGHSL
notes: also called wild-type control
B2: GPIbα D235Y, full-length, on transfected HEK-293T cells (receptor)
chain: B1 chain with D235Y
notes: Some cells were also transfected with GPIbβ and GP-IX; also called single mutation D235Y
B3: GPIbα G233V/M239V, full-length, on transfected HEK-293T cells (GPIbα alone in Table 2) (receptor)
chain: B1 chain with G233V, M239V
notes: also called double mutation G233V/M239V
B4: GPIbα G233V/D235Y/M239V, full-length, on transfected HEK-293T cells (receptor)
chain: B1 chain with G233V, D235Y, M239V
notes: Some cells were also transfected with GPIbβ and GP-IX; also called triple mutation; triple GPIbα mutation
B5: GPIbα M239V, full-length, on transfected HEK-293T cells (receptor)
chain: B1 chain with M239V
notes: Some cells were also transfected with GPIbβ and GP-IX; also called single mutation M239V
B6: GPIbα G233V/D235Y, full-length, on transfected HEK-293T cells (receptor)
chain: B1 chain with G233V, D235Y
notes: Some cells were also transfected with GPIbβ and GP-IX; also called double mutation G233V/D235Y
B7: GPIbα D235Y/M239V, full-length, on transfected HEK-293T cells (receptor)
chain: B1 chain with D235Y, M239V
notes: Some cells were also transfected with GPIbβ and GP-IX; also called double mutation D235Y/M239V
B8: GPIbα G233V, full-length, on transfected HEK-293T cells (receptor)
chain: B1 chain with G233V
notes: Some cells were also transfected with GPIbβ and GP-IX; also called single mutation G233V

Molecular target: T1, von Willebrand factor (VWF) in plasma of reference standards, controls and normal individuals (human, UniProt P04275 764-2813)
T1 construct: In the assays VWF was the multimeric protein in diluted platelet poor plasma; also called PPP (source of VWF); ISTH 2
Assay: FACS on transfected HEK-293T cells, with ristocetin or botrocetin
Method: (§1) For FACS, about 50 μl of a 1:10 dilution of platelet poor plasma (PPP; source of VWF) in assay buffer was added to the plate and serially diluted 1:2 to final dilution of 1:80. ISTH Lot #3 (GTI; Milwaukee, Wis.) was used as a standard and diluted 1:10 in assay buffer and serially diluted 1:2 to a final dilution of 1:320. The plate was then incubated for one hour at room temperature. After the one-hour incubation, the plate was centrifuged again at 1200 rpm for 5 minutes and the supernatant was discarded.
(§2) In some experiments, the PPP was diluted in PBS containing 1% BSA and either 1 mg/ml Ristocetin A (American Biochemical & Pharmaceuticals, Ltd.; Marlton, N.J.) or 1 mg/ml Botrocetin (Sigma Aldrich).
Fluorescently labeled antibodies (anti-GPIbα; Blood Research Institute) were diluted to a final concentration of 5 μg/ml in assay buffer. Fluorescently labeled anti-VWF polyclonal was also was diluted to a final concentration of 5 μg/ml in assay buffer and added to transfected cells incubated in PPP. Normal rabbit IgG (NRIgG; Pierce) and AP-1 were added at a concentration of 5 μg/ml to transfected cells as negative and positive controls, respectively. The plate was then incubated in the dark for one hour at room temperature. Assay buffer was added to each well to bring the final volume to 150 μl, and FACS was performed using a BD LSRII System (Becton Dickinson). […]

Row | binding result | Binder
1 | binds | B1

Molecular target: T1, von Willebrand factor (VWF) in plasma …
Assay: FACS on transfected HEK-293T cells, ristocetin titration
Method: as §1, §2
Fluorescently labeled antibodies (anti-GPIbα; Blood Research Institute) were diluted to a final concentration of 5 μg/ml in assay buffer. Fluorescently labeled anti-VWF polyclonal was also was diluted to a final concentration of 5 μg/ml in assay buffer and added to transfected cells incubated in PPP. Normal rabbit IgG (NRIgG; Pierce) and AP-1 were added at a concentration of 5 μg/ml to transfected cells as negative and positive controls, respectively. The plate was then incubated in the dark for one hour at room temperature. Assay buffer was added to each well to bring the final volume to 150 μl, and FACS was performed using a BD LSRII System (Becton Dickinson). Results are shown in VWF:IbCo units.

Row | binding result | Binder
2 | binds | B2
3 | binds | B3
4 | binds | B4
5 | binds | B5
6 | binds | B6
7 | binds | B7
8 | binds | B8
